First the molecules themselves.
B1: glmS ribozyme (parent)
chain: AUAAAAGCGCCAGAACUACAGAAAUGUAGUUGACGAGGAGGAGGUUUAUCGAAUUUUCGGCGGAUGCCUCCAAA

What all share (settings): with glucosamine-6-phosphate
Variants of B1 are the subject of data set [1]. Description: kcat; higher = faster cleavage; RNA array. The essentials:
(§1)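 Tiles of sequenced MiSeq chips were imaged over ~14 h at 37 °C. On them, barcoded ribozyme variants had been transcribed in situ by E. coli RNA polymerase and were tracked via a hybridised Cy3 probe while glucosamine-6-phosphate (40 μM to 10 mM) in HEPES/KCl/Mg(OAc)2 buffer flowed in. Per-tile medians, normalised to baseline and to non-cleaving reference variants, were fit to one- or two-exponential decays for kobs, and weighted Michaelis–Menten fits gave kcat and KM.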

The variants in data set [2] derive from B1. Description: self-cleavage kobs at 640 uM GlcN6P; higher = faster cleavage; RNA array. The essentials:
as §1

In data set [3] the parent is B1. Description: KM; higher = weaker cofactor use; RNA array. The method, boiled down: as §1
The variants in data set [4] derive from B1. The experiment in a line: self-cleavage kobs at 40 uM GlcN6P; higher = faster cleavage; RNA array. The method, boiled down:
as §1

The variants in data set [5] derive from B1. Description: self-cleavage kobs at 160 uM GlcN6P; higher = faster cleavage; RNA array. The method, boiled down: as §1
Data set [6] covers variants of B1. The experiment in a line: self-cleavage kobs at 2500 uM GlcN6P; higher = faster cleavage; RNA array. The essentials:
as §1

The variants in data set [7] derive from B1. The experiment in a line: self-cleavage kobs at 10000 uM GlcN6P; higher = faster cleavage; RNA array. The method, boiled down:
as §1

As usually defined, the kcat is the maximal rate divided by the concentration of active sites. As usually defined, the KM is the substrate concentration at which the rate is half of its maximum.

± gives the standard error. For part of these data: This sample holds only a part of the variants without activity. A value given as a limit tells only on which side of the number the result lay.

Consider G44C U55C, for which the kcat with glucosamine-6-phosphate [1] was found to be 3.25e-05 ± 2.5e-06 s⁻¹. In addition, the “self-cleavage kobs at 640 uM GlcN6P” value in the data set with glucosamine-6-phosphate [2] is 2.79e-05 ± 1.3e-05 s⁻¹.
A39C A53U: the turnover number (kcat) in the data set with glucosamine-6-phosphate [1] is 0.00502 ± 0.0011 s⁻¹. Also, in the data set with glucosamine-6-phosphate [3], the Michaelis-Menten constant (KM) was 2730 ± 760 µM. For the same variant, the “self-cleavage kobs at 40 uM GlcN6P” value with glucosamine-6-phosphate [4] is 7.74e-05 ± 7.6e-06 s⁻¹. The “self-cleavage kobs at 160 uM GlcN6P” value with glucosamine-6-phosphate [5] turned out to be 0.000227 ± 3.4e-05 s⁻¹. Further, the “self-cleavage kobs at 640 uM GlcN6P” value with glucosamine-6-phosphate [2] was 0.000952 ± 0.00013 s⁻¹. Also, the “self-cleavage kobs at 2500 uM GlcN6P” value with glucosamine-6-phosphate [6] came out at 0.00344 ± 0.00044 s⁻¹. The “self-cleavage kobs at 10000 uM GlcN6P” value in the data set with glucosamine-6-phosphate [7] came to 0.00367 ± 0.00039 s⁻¹.
Turning to G40U U45C C70U, the kcat with glucosamine-6-phosphate [1] came to 0.000444 ± 6.4e-05 s⁻¹. For the same variant, the Michaelis constant (KM) in the data set with glucosamine-6-phosphate [3] stood at 1000 ± 370 µM. For the same variant, the “self-cleavage kobs at 640 uM GlcN6P” value in the data set with glucosamine-6-phosphate [2] was found to be 0.000186 ± 3.9e-05 s⁻¹. For the same variant, in the data set with glucosamine-6-phosphate [6], the “self-cleavage kobs at 2500 uM GlcN6P” value worked out at 0.00025 ± 8.8e-05 s⁻¹. In the data set with glucosamine-6-phosphate [7], the “self-cleavage kobs at 10000 uM GlcN6P” value is 0.000426 ± 7.7e-05 s⁻¹.
For A33G C58G, the kcat in the data set with glucosamine-6-phosphate [1] is under 1e-05 s⁻¹. In addition, in the data set with glucosamine-6-phosphate [7], the “self-cleavage kobs at 10000 uM GlcN6P” value was under 1e-05 s⁻¹.
As for C10A U46G C50U C68U, in the data set with glucosamine-6-phosphate [1], the kcat stood at 3.67e-05 ± 1.3e-05 s⁻¹.
On to A12U U46G, for which the kcat with glucosamine-6-phosphate [1] is 0.023 ± 0.007 s⁻¹. In addition, the Michaelis constant (KM) with glucosamine-6-phosphate [3] was 2700 ± 1100 µM. For the same variant, in the data set with glucosamine-6-phosphate [4], the “self-cleavage kobs at 40 uM GlcN6P” value amounted to 0.000297 ± 7.2e-05 s⁻¹. For the same variant, the “self-cleavage kobs at 640 uM GlcN6P” value with glucosamine-6-phosphate [2] turned out to be 0.00656 ± 0.0018 s⁻¹. Also, in the data set with glucosamine-6-phosphate [6], the “self-cleavage kobs at 2500 uM GlcN6P” value worked out at 0.0119 ± 0.0035 s⁻¹. Moreover, in the data set with glucosamine-6-phosphate [7], the “self-cleavage kobs at 10000 uM GlcN6P” value worked out at 0.0167 ± 0.0047 s⁻¹.
For the variant G32C C67U, in the data set with glucosamine-6-phosphate [1], the kcat turned out to be 2.59e-05 ± 7.6e-07 s⁻¹. In the data set with glucosamine-6-phosphate [3], the KM amounted to 885 ± 190 µM. Further, the “self-cleavage kobs at 10000 uM GlcN6P” value with glucosamine-6-phosphate [7] amounted to 2.39e-05 ± 5.6e-06 s⁻¹.
As to C58G G66C, the catalytic constant (kcat) with glucosamine-6-phosphate [1] came to 2.6e-05 ± 1.4e-06 s⁻¹. Moreover, the Michaelis constant (KM) with glucosamine-6-phosphate [3] turned out to be 2200 ± 540 µM. Moreover, in the data set with glucosamine-6-phosphate [2], the “self-cleavage kobs at 640 uM GlcN6P” value is under 1e-05 s⁻¹.
In the case of A12U A15U A39C, the kcat with glucosamine-6-phosphate [1] came to 0.000282 ± 8.6e-05 s⁻¹. Besides, in the data set with glucosamine-6-phosphate [5], the “self-cleavage kobs at 160 uM GlcN6P” value came to 6.33e-05 ± 1.3e-05 s⁻¹. Also, in the data set with glucosamine-6-phosphate [2], the “self-cleavage kobs at 640 uM GlcN6P” value came to 9.89e-05 ± 1.6e-05 s⁻¹. In the data set with glucosamine-6-phosphate [6], the “self-cleavage kobs at 2500 uM GlcN6P” value was 0.000199 ± 3.2e-05 s⁻¹. In addition, the “self-cleavage kobs at 10000 uM GlcN6P” value in the data set with glucosamine-6-phosphate [7] was determined as 0.000374 ± 8.8e-05 s⁻¹.
Regarding U46G U56G, the kcat with glucosamine-6-phosphate [1] was 0.00393 ± 0.00066 s⁻¹. For the same variant, the KM with glucosamine-6-phosphate [3] stood at 1690 ± 350 µM. The “self-cleavage kobs at 40 uM GlcN6P” value with glucosamine-6-phosphate [4] was found to be 8.55e-05 ± 1.5e-05 s⁻¹. Also, the “self-cleavage kobs at 160 uM GlcN6P” value with glucosamine-6-phosphate [5] worked out at 0.000353 ± 0.00012 s⁻¹. Further, the “self-cleavage kobs at 640 uM GlcN6P” value in the data set with glucosamine-6-phosphate [2] came to 0.00128 ± 0.00033 s⁻¹. The “self-cleavage kobs at 2500 uM GlcN6P” value in the data set with glucosamine-6-phosphate [6] is 0.00271 ± 0.00083 s⁻¹. For the same variant, the “self-cleavage kobs at 10000 uM GlcN6P” value in the data set with glucosamine-6-phosphate [7] amounted to 0.0029 ± 0.001 s⁻¹.
For the variant A53U A64U, the kcat in the data set with glucosamine-6-phosphate [1] amounted to 6.7e-05 ± 2e-06 s⁻¹. The KM with glucosamine-6-phosphate [3] was 1330 ± 190 µM. For the same variant, the “self-cleavage kobs at 40 uM GlcN6P” value with glucosamine-6-phosphate [4] is under 1e-05 s⁻¹. In the data set with glucosamine-6-phosphate [6], the “self-cleavage kobs at 2500 uM GlcN6P” value amounted to 4.18e-05 ± 1.2e-05 s⁻¹. For the same variant, the “self-cleavage kobs at 10000 uM GlcN6P” value with glucosamine-6-phosphate [7] amounted to 5.95e-05 ± 7.3e-06 s⁻¹.
Consider C58G C67A, for which the kcat with glucosamine-6-phosphate [1] came out at 4.68e-05 ± 7.6e-06 s⁻¹. For the same variant, the “self-cleavage kobs at 640 uM GlcN6P” value in the data set with glucosamine-6-phosphate [2] came to 6.09e-05 ± 1.3e-05 s⁻¹. Moreover, in the data set with glucosamine-6-phosphate [6], the “self-cleavage kobs at 2500 uM GlcN6P” value was determined as 4.7e-05 ± 1.4e-05 s⁻¹. Also, the “self-cleavage kobs at 10000 uM GlcN6P” value with glucosamine-6-phosphate [7] is 3.78e-05 ± 1e-05 s⁻¹.
Turning to C11A C16G, the kcat with glucosamine-6-phosphate [1] came out at 0.000161 ± 3.7e-05 s⁻¹. For the same variant, the “self-cleavage kobs at 10000 uM GlcN6P” value with glucosamine-6-phosphate [7] was found to be 5.99e-05 ± 1.1e-05 s⁻¹.
For the variant A36C, in the data set with glucosamine-6-phosphate [1], the kcat was under 1e-05 s⁻¹. Further, the “self-cleavage kobs at 160 uM GlcN6P” value with glucosamine-6-phosphate [5] was under 1e-05 s⁻¹.
Turning to U31A A53G, in the data set with glucosamine-6-phosphate [1], the kcat is 0.0153 ± 0.0017 s⁻¹. Besides, the KM in the data set with glucosamine-6-phosphate [3] stood at 1860 ± 270 µM. Moreover, in the data set with glucosamine-6-phosphate [4], the “self-cleavage kobs at 40 uM GlcN6P” value is 0.00035 ± 4.3e-05 s⁻¹. For the same variant, in the data set with glucosamine-6-phosphate [5], the “self-cleavage kobs at 160 uM GlcN6P” value was found to be 0.00107 ± 0.00018 s⁻¹. Further, in the data set with glucosamine-6-phosphate [2], the “self-cleavage kobs at 640 uM GlcN6P” value was determined as 0.0038 ± 0.00071 s⁻¹. In addition, the “self-cleavage kobs at 2500 uM GlcN6P” value in the data set with glucosamine-6-phosphate [6] is 0.0096 ± 0.0019 s⁻¹. In addition, the “self-cleavage kobs at 10000 uM GlcN6P” value with glucosamine-6-phosphate [7] came to 0.0127 ± 0.002 s⁻¹.
As for C16A A53U, the kcat with glucosamine-6-phosphate [1] turned out to be 0.00183 ± 0.0008 s⁻¹. In addition, in the data set with glucosamine-6-phosphate [2], the “self-cleavage kobs at 640 uM GlcN6P” value came to 0.000241 ± 6.3e-05 s⁻¹. In addition, in the data set with glucosamine-6-phosphate [6], the “self-cleavage kobs at 2500 uM GlcN6P” value turned out to be 0.00116 ± 0.00029 s⁻¹. For the same variant, in the data set with glucosamine-6-phosphate [7], the “self-cleavage kobs at 10000 uM GlcN6P” value stood at 0.00118 ± 0.00035 s⁻¹.
The like results for C16G C70G were, in that order, 5.91e-05 ± 5.2e-06 s⁻¹, 5.48e-05 ± 9.9e-06 s⁻¹, 6.29e-05 ± 9.7e-06 s⁻¹ and 5.09e-05 ± 9.5e-06 s⁻¹.
As to G66A C70U, in the data set with glucosamine-6-phosphate [1], the kcat stood at 0.0162 ± 0.0065 s⁻¹. Further, the “self-cleavage kobs at 40 uM GlcN6P” value with glucosamine-6-phosphate [4] turned out to be 0.00075 ± 0.0001 s⁻¹. For the same variant, in the data set with glucosamine-6-phosphate [5], the “self-cleavage kobs at 160 uM GlcN6P” value is 0.00153 ± 0.00021 s⁻¹. In addition, the “self-cleavage kobs at 640 uM GlcN6P” value in the data set with glucosamine-6-phosphate [2] stood at 0.00577 ± 0.00081 s⁻¹. Moreover, the “self-cleavage kobs at 2500 uM GlcN6P” value in the data set with glucosamine-6-phosphate [6] is 0.00738 ± 0.0024 s⁻¹. In the data set with glucosamine-6-phosphate [7], the “self-cleavage kobs at 10000 uM GlcN6P” value came out at 0.0185 ± 0.0034 s⁻¹.

These data come from the supplement of paper PMC7125110.
